B1: EEHEE_rd4_0363 (parent)
chain: VTVDIKGMEYHFDNPEEAKKFAERMAKELGGELKVENGTLKVE

Variants of: B1
Assay: folding stability dG (cDNA display proteolysis); higher = more stable
Conditions: PBS, room temperature

Folding stability dG [kcal/mol], by site and new letter:
E32: G 1.4 | Y 2.96 | Q 2.41 | S 2.48 | L 2.32 | N 2.21 | V 2.84 | C 2.56 | K 2.43 | P 0.989 | D 1.67 | F 2.82 | R 2.23 | M 2.31 | H 2.45 | W 2.97 | T 2.81 | A 2.15 | I 2.89
E28: M 2.03 | H 1.73 | L 2.34 | S 1.4 | A 1.81 | Y 2.07 | W 2.26 | R 1.81 | T 1.47 | P 0.477 | D 1.34 | I 2.18 | G 0.795 | C 2.97 | Q 1.75 | F 1.95 | K 1.92 | V 1.88 | N 1.28
G31: V 1.85 | L 2.57 | P 0.726 | Y 2.12 | F 2.03 | T 1.38 | R 0.865 | W 2.33 | Q 1.32 | N 0.953 | H 1.27 | D 0.935 | M 2.32 | K 0.977 | A 2.15 | C 2.36 | S 1.39 | E 1.23 | I 1.88
A26: Q 1.3 | G 0.834 | N 0.898 | K 0.954 | D 0.592 | S 1.3 | R 1.24 | W 1.48 | V 1.66 | L 1.64 | P -0.451 | Y 0.983 | M 1.55 | T 1.23 | C 2.06 | H 0.962 | I 1.6 | E 0.931 | F 1.13
K34: G 1.03 | W 1.82 | R 2.21 | S 1.68 | A 1.33 | F 2 | V 2.26 | Q 1.42 | N 1.41 | E 1.02 | I 2.28 | D 1.01 | P 0.802 | L 1.77 | T 1.9 | H 1.82 | M 1.66 | C 1.95 | Y 1.98
A22: C 1.54 | F 1.23 | E 0.571 | Y 1.06 | Q 0.746 | T 0.578 | G 0.968 | N 0.039 | D -0.23 | K 0.798 | L 1.48 | V 1.26 | W 1.53 | R 1.05 | I 1.5 | M 1.39 | S 0.388 | H 0.228
L33: V 2.81 | I 2.48 | K 0.659 | H 0.949 | M 1.61 | F 1.47 | T 1.13 | S 0.81 | N 0.799 | E 0.789 | G 0.82 | P 0.732 | A 1.07 | Q 0.872 | W 1.78 | R 0.462 | D 0.762 | Y 1.43
E23: D 1.58 | K 1.34 | P -0.639 | R 1.16 | V 1.55 | C 2.35 | N 0.999 | W 1.4 | F 1.27 | I 1.87 | T 1.31 | Q 1.65 | G 0.124 | A 1.48 | H 1.11 | S 1.08 | M 1.9 | L 1.89 | Y 1.5
E36: I 2.43 | F 1.88 | A 1.74 | C 2.26 | G 1.61 | D 1.77 | H 1.83
G30: C 2.23 | S 1.5 | I 1 | E 1.41 | W 1.17 | R 1.6 | D 1.52 | A 1.43 | M 1.55 | H 1.74 | T 1 | N 1.93 | V 1.01 | K 1.66 | Q 1.57 | L 1.34 | P 0.76 | Y 1.27 | F 1.43
R24: C 2.83 | Y 2.34 | P -0.281 | W 2.34 | V 1.35 | F 2.28 | S 1.72 | Q 2.04 | I 1.5 | E 1.99 | N 1.55 | M 2.11 | T 1.75 | G 1.29 | D 1.68 | K 2.01 | H 1.94 | L 1.99 | A 2.11
L29: V 1.14 | K 0.78 | E 0.835 | A 0.915 | H 1.23 | M 1.69 | N 1.05 | S 1.12 | T 1.37 | Y 1.47 | Q 1.06 | F 1.55 | G 0.895 | P 0.59 | W 1.34 | D 0.74 | I 1.57 | R 0.668
K20: P -0.999 | W 1.67 | T 1.67 | Y 1.57 | C 2.28 | H 1.53 | E 2.08 | L 2.06 | M 1.88 | Q 2.01 | R 2.18 | V 1.73 | D 1.7 | A 2.42 | S 1.95 | N 1.77 | I 2.08 | G 1.18 | F 1.62
V35: T 1.72 | G 1.2 | L 1.93 | H 1.57 | I 2.27 | F 2.38 | E 1.96 | Q 1.62 | R 1.25 | A 1.53 | M 2 | C 2.78 | D 1.59 | P 0.972 | Y 2.48 | N 1.73 | W 3.09 | S 1.61 | K 1.3
K27: D 1.56 | S 1.81 | R 2.11 | W 2.28 | C 2.48 | H 1.87 | V 1.82 | G 1.35 | L 2.35 | Y 2.27 | A 2.15 | N 1.75 | E 1.77 | F 2.35 | Q 2.09 | I 2.14 | T 1.7 | P 0.089 | M 2.19
A18: F 0.719 | Q -0.376 | E -0.431 | T -0.52 | M 0.379 | S -0.064 | L 0.471 | R -0.072 | W 0.824 | C 1.03 | K -0.683 | I -0.262 | H -0.269 | V -0.372 | G 1.46 | Y 0.753
F21: W 1.64 | E -0.293 | Y 1.06 | A -0.089 | I -0.454 | N -0.807 | L -0.142 | M -0.083 | H -0.264 | V -0.636 | Q -0.803 | C 0.708
M25: E 0.574 | T 0.78 | D 0.142 | R 1.13 | I 1.57 | K 1.37 | V 1.44 | G 0.03 | Q 1.05 | N 0.581 | Y 1.34 | C 2.19 | A 1.37 | H 0.844 | S 0.692 | F 1.08 | W 2.1 | L 1.45 | P -0.009
K19: G 0.835 | I 2.38 | A 1.65 | T 1.71 | E 1.32 | R 2.65 | S 1.35 | W 3.27 | N 1.38 | Y 2.87 | Q 2.17 | M 2.67 | V 1.96 | L 2.74 | H 1.98 | D 0.524 | F 2.67
